From the DeepSol protein solubility set

Test: soluble on expression in E. coli; label from the status in PepcDB or PDB records

Sequence | soluble on expression in E. coli
MTGSACFFSTDFLFGRYGPTVCIIPSENIPDKANTMIRPDFQEYLPSYYFSSVNPHTVYPKLQCRLKAETCIIGGGLSGLCTALPLAEHGHEAVVLEAARIGFGASGRSGGQVISDYACGMGEIEKQVGLEQAQWFWQQSLQAVELVDERVRKHAIDCDWQRGYATVAVRPQHWEELQQWHEHAQRHYGASHYQLWDKAELKQQLDSDMYQGAQFDPLSGHLHPLNYTLGVASAAAEAGAQIFEQSPMTRIEPYQNGWLVYTPEGSVECKNVVYAVNTYVGLNPIFRPLERKAIAVSTFIIATEPLGARTKGLIRNNMAVCDNRHILDYYRLSADGRLLFGGKDNEFIDNPARMTELVRQDMLKVFPQLADVRIEYSWGGECDITANLVPHFGRLTSNVFYTQGYSGHGMAITGIAGLAVAEAILGDECRLKPFEQLCQPNIILQPFLRKLGSFLGSKYYQWKDSRLEHHHHHH | not soluble
MTHETDKIVEIERQKIEVENERFAIEDECCSIKKRIDVLDGVAAQISSGPASMGFSGQCSSSIPASGSQPHLTRRHTVTGQEPNPLAMSQNQMSTGFFFNHESLDNLAKFLGYYGE | not soluble
MTHFKGGTMSQFEKYHPILTPHYTFDWLTKVRVIDVFNLYQTSNATATMETTAAQINHTMREIFHDHQLVWGVTARDTNAFVGQVGFAPIDTAKHEATLSVDLTATYQQVTTLREILERLVAFGTVELKLNRLTLILPKHDDLMAQILAGLNFSTTDHLTFNYHQ | not soluble
MTHPRDSIALTSDSLVLRFLSESGIPISDNNKVRLLKSGREKFIDLFSAIRDAKHHIHLEYFNFRNDSIANALFDLLAEKVKEGVEVRAMFDAFGNWSNNKPLKKRHLKKIREQGIEIVKFDPFTFPYINHAAHRDHRKIAVIDGEVAYTGGMNIADYYINGLPKIGTWRDMHMRIEGDAVNDLQEIFLTIWNKETKQNIGGEAYFPKHKEQSDSTNVVVAIVDRTPKKNSRMLSHA | not soluble
MTIKEDLGRRIKAERNRKQLTQSLLCGDETKLTIRQLQRIEGGQSLPTLEKLEFIADRLGTKIADLLEGSDIQLPDDYWELKGQIVKFPTYADKERLQQKQELIEEIYDKYFDILPEDELLFLDLSENILDSFHEKDIPNIEEIYDDAFEQVLKKETFAFNDYLYMSYFLQKCGKTADYDQTTFKLLEQKLLKQELTVDELYNIELLIAVMEASGVYALHNDYQNLLPLMKKAQRIIDKAQLHTYKPPLLELEAKYYVKVVKDKKKAKELYQQALVMGEVLGDPVIIADVKMEMANDGID | not soluble
MTILSVSPNKREDLSMKRKIALAMVLAMTASMAQPVLAADSKTTLDVIISQYGTQTQTWWTQFEKDFEAENPDIDLNVEIVSWNDLYTKVNTLVANNNAPDILNIDVLADYVADDLLMPATEYASEDLQAKFFPAFWEASTIDDTVYALPILASCRALFYNKDILDEAGATVPTTWAEVQETAQKIKDKFGDDVYPWGIDMTTDEGQAAFSYYTWNNGGGFVDENGDWALNSDKNVEALNFAIGLVNDGYTNSDPANETRYDLQDMFGAGKVAMMIGPNNIPTYLSDGGYDINYDVTTIPANEGCDSVAMGVCDRLEVFKDDSAEDQEARTAAISKFFDFFYDDERYADYMVFEGFLPTTQTAADLLAKDDDTFASWIDILQSCNFYPATKTEWADVKQGVIEVEQNALLGDDVQTLLDDLQADIAG | not soluble
MTITQKGDHHSILAKLRHRNIILAKLEKAYKIPSSNIKNIWTQLNEKIEHTIADFIRLLAKQMFINRYLKSCIRISKAEKKRDTVSLVHHLFYNNAA | not soluble
MTIYLVRHGESKSNYDNKHFRSYFCGQLDVPLTDTGTKSADDLCDYFKEKQIKHVYVSDLLRTQQTFEHIFPYDIASTTTPLLRERSLGVFEGEYKDEISANPKYEKYFNDPNFKDFRHSFSQKAPEGESYEDVYQRVEHFMNHVVNEDTQKDDIVIVAHQVVIRCLMVYFNKVSRAEAVDLKVENCKPYIIE | not soluble
MTKAELRRRARAAWRRLDLKALSRAVGAALLPWLRERGFRHILLYHPLPHELNLLPLMEAYPARYYLPKVAGKGLTVHPFGPLAPGPFGLLEPTTPPEDPRVLDLVVVPGLAFDREGYRLGHGQGFYDRFLKEVRAATVGVVPQALLFPALPRDPWDVPVDHLATEAGVEAVKRPAPGPGGLLD | soluble
MTKIFAKEWNMSDPGRALASFFATLPTRPQLLALGEPNHTDDAFPAQRNRLFRTLVEEYGFRSIALESDILAGQRVNAYVTGGADDLEEVMRTGFSHDFGRRAANRELVGWLRDFNAGRSADEQVHFYGFDPPMENLWAASPRASLLTLHALLARQVPALPVSAATIERLCGDDARWANPAAGMDAAQSIGHSDEARQLRVLTDDLLHRLETGAPGLAEQPDFWEAQLAARTAAGLLRYHAVMADPAPDRIARMLAARDLLMAGHLLAIAEREQRCGPTLVFAHNLHLQRPLSRMKMGAQKIGAQTLDWWGAGAHVSRRLGERYAFIASYPGAAEETFLVPSSELTEAAATQLSVRDDGQPYSFPFKLSDLPFLNGALLVGQFLEHHHHHH | soluble
MTKIIKNGTIVTATDTYEAHLLIKDGKIAMIGQNLEEKGAEVIDAKGCYVFPGGIDPHTHLDMPLGGTVTKDDFESGTIAAAFGGTTTIIDFCLTNKGEPLKKAIETWHNKANGKAVIDYGFHLMISEITDDVLEELPKVLEEEGITSLKVFMAYKNVFQADDGTLYCTLLAAKELGALVMVHAENGDVIDYLTKKALADGNTDPIYHALTRPPELEGEATGRACQLTELAGSQLYVVHVTCAQAVEKIAEARNKGLDVWGETCPQYLVLDQSYLEKPNFEGAKYVWSPPLREKWHQEVLWNALKNGQLQTLGSDQCSFDFKGQKELGRGDFTKIPNGGPIIEDRVSILFSEGVKKGRITLNQFVDIVSTRIAKLFGLFPKKGTIVVGSDADLVIFDPNIERVISAETHHMAVDYNAFEGMKVTGEPVSVLCRGEFVVRDKQFVGKPGYGQYLKRAKYGT | soluble
MTKIRQKSRKPGRTSRAKPVVAVVWYEDEQEWRAMRDLADDPERFEDSYEAWLTMFDRSLERLREGGAFPVRTPCNATKYREWCESKARSFDACSRSEYAAREFQARATQDE | not soluble
MTKKDEVKELEVKNNIPEAEKKPFNKFGKQEKHTVEDVEYTFQFPGTRAAQAILDNSKGPSNTFSDVAYHSQLMDSVIVTPKLNWDYWDEHEGYREVMALADNFLGRMLN | not soluble
MTKKYDLHCHSTASDGVLSPTELVHRAYAQGVNVLALCDHDTIAGIDEAEIAAKEVGIELITGVEISTNWEGRGIHIVGLNFDKTHPKMTALLQSQKALREKRAVEIGDKLEKAGIPNAYDGAKALADGEVTRAHYARYLVQIGKVSNDGQAFKRYLGQGKSAFVKAEWADIPTAIETIHAAGGIAIIAHPLRYNMTGKWVRKLIVDFKAWGGDGMEMADCGQTKDQRQMLARWAKEFDLQGSVGSDFHFPCGWIELGKNLDLVDSVIPVWEKF | not soluble
MTKLTIFYDGTCPLCAKEMKALRQHDHKQEINTVDIYSDAFSAYPQINPDRANTILHALDNQGNLLLGLDVTYRAWQLVGRGWLYAPLRWPLIRPVADWLYLRFAQNRYRISYWLTGTSRCNSGRCSR | not soluble
MTKNTRFSPEVRQRAVRMVLESQGEYDSQWATICSIAPKIGCTPETLRVWGLRQHERDTGGGDGGLTTAERQRLKEPERENRELRRSNDILRQASAYFAKAEFDRLWKKLEHHHHHH | not soluble
MTKPMIQIALDQTNLTDAVAVASNVASYVDVIEVGTILAFAEGMKAVSTLRHNHPNHILVCDMKTTDGGAILSRMAFEAGADWITVSAAAHIATIAACKKVADELNGEIQIEIYGNWTMQDAKAWVDLGITQAIYHRSRDAELAGIGWTTDDLDKMRQLSALGIELSITGGIVPEDIYLFEGIKTKTFIAGRALAGAEGQQTAAALREQIDRFWP | not soluble
MTKPVSISKKPRKQHTPEFRNEALKLAERIGVAAAARELSLYESQLYAWRSKQQQQMSSSERESELAAENVRLKRQLAEQAEELSILQKAATYFAKRLK | not soluble
MTKSLFRQSFLFDSLDLDHPMVAQTVRTEQGVTLKLHQRGVLEVIPAQTDAATKNMVISCGIHGDETAPMELLDKWIDDIVSGFQPVAERCLFIMAHPQATVRHVRFIEQNLNRLFDDKPHTPSTELAIADNLKVLLRQFFANTDEHSRWHLDLHCAIRGSKHYSFAVSPKARHPVRSRSLMQFIEQAHIEAVMLSNAPSSTFSWYSAEHYAAQALTLELGQVARLGENLLDRLLAFDLAMRDLISRHKPEHLPRKSVMYRVSRTIVRLHDDFDFRFSDDVENFTAFMHGEVFGHDGDKPLMAKNEGEAIVFPNRKVAIGQRAALMVCKVNTRYEDDQLVYDLEHHHHHH | soluble
MTKVALFSGGDLTYFTRDFDYFVGIDKGSSFLLKNQLPLDLAIGDFDSVSAEEFKQIKAKAKKLVMAPAEKNDTDTELALKTIFDCFGRVEIIVFGAFGGRIDHMLSNIFLPSDPDLAPFMRCFKLRDEQNLVEFFPAGQHQIEQATDMVYISFMAANGAHLSIQDAKYELTEENYFQKKIYSSNEFKDKPICFSVASGYVVVIQTKDRTLEHHHHHH | soluble
MTKYIFVTGGVVSSLGKGITAASLGRLLKNRGLNVTIQKFDPYINVDPGTMSPYQHGEVFVTDDGAETDLDLGHYERFIDINLNKYSNVTTGKIYSAVIRKERRGDYLGGTVQVIPHITNEIKERVFRAGRETNADVVITEIGGTVGDIESLPFLEAIRQIKSDVGRENVMYIHCTLVPYIKAAGEMKTKPTQHSVKELRSLGIQPNVIVVRTEMPMPQEMKEKIALFCDIDPKAVIEARDADTLYAVPLMLQEQKLDQIVCEHLRLNCREADMTEWKALVEKVRNLSKTTKIALVGKYVELPDAYISVVEALRHAGYAFDTDIDIQWINAEHVTRDNVADLLKDADGILVPGGFGDRGVEGKIEAIRYAREQRVPFLGICLGMQLASIEFARHVVGLSGAHSSEFDPNTPHPIIDLLPEQKDVEDLGGTLRLGLYPCKLQEGTLAYAAYGDEVIYERHRHRYEFNNQYRSIMEEHGFVFSGTSPDGRLVEVIELKDHPWFVAAQFHPEFTSRPTRPQPLFREFVRASLKE | not soluble
MTLDVPVNQGHVPPGSVACCLVGVTAVADGIAGHSLSNFGALPPEINSGRMYSGPGSGPLMAAAAAWDGLAAELSSAATGYGAAISELTNMRWWSGPASDSMVAAVLPFVGWLSTTATLAEQAAMQARAAAAAFEAAFAMTVPPPAIAANRTLLMTLVDTNWFGQNTPAIATTESQYAEMWAQDAAAMYGYASAAAPATVLTPFAPPPQTTNATGLVGHATAVAALRGQHSWAAAIPWSDIQKYWMMFLGALATAEGFIYDSGGLTLNALQFVGGMLWSTALAEAGAAEAAAGAGGAAGWSAWSQLGAGPVAASATLAAKIGPMSVPPGWSAPPATPQAQTVARSIPGIRSAAEAAETSVLLRGAPTPGRSRAAHMGRRYGRRLTVMADRPNVG | not soluble
MTLHEVPTILHRCGDCPIRHRAVCARCDSEELATLEQIKYYRSYQAGQTVIWSGDKMDFVASVVTGIATLTQTMEDGRRQMVGLLLPSDFVGRPGRQTVAYDVTATTDLLMCCFRRKPFEEMMQKTPHVGQRLLEMTLDELDAAREWMLLLGRKTAREKIASLLAIIARRDAALKLRESNGPMTFDLPLTREEMADYLGLTLETVSRQVSALKRDGVIALEGKRHVIVTDFARLLEEAGDDSDGGLPV | not soluble
MTLKELLVGFGTQVRSIWMIGLHAFAKRETRMYPEEPVYLPPRYRGRIVLTRDPDGEERCVACNLCAVACPVGCISLQKAETKDGRWYPEFFRINFSRCIFCGLCEEACPTTAIQLTPDFELGEYKRQDLVYEKEDLLISGPGKYPEYNFYRMAGMAIDGKDKGEAENEAKPIDVKSLLP | not soluble
